Laboratory results taken from publication PMC11277095 (International Journal of Molecular Sciences, 2024).

Target: the molecule itself
Experiment: native gel or EMSA; 10 µg purified protein mixed with hypotonic buffer, hyperosmotic resealing solution (10% v/v Pigpa) or loading buffer; Tris/glycine buffer pH 8.3, 100 V; Coomassie staining

B1: Human ornithine aminotransferase variant R217A (OAT-R217A) (enzyme, UniProt P04181 26-439, looked up)
chain: TSVATKKTVQGPPTSDDIFEREYKYGAHNYHPLPVALERGKGIYLWDVEGRKYFDFLSSYSAVNQGHCHPKIVNALKSQVDKLTLTSRAFYNNVLGEYEEYITKLFNYHKVLPMNTGVEAGETACKLARKWGYTVKGIQKYKAKIVFAAGNFWGRTLSAISSSTDPTSYDGFGPFMPGFDIIPYNDLPALEAALQDPNVAAFMVEPIQGEAGVVVPDPGYLMGVRELCTRHQVLFIADEIQTGLARTGRWLAVDYENVRPDIVLLGKALSGGLYPVSAVLCDDDIMLTIKPGEHGSTYGGNPLGCRVAIAALEVLEEENLAENADKLGIILRNELMKLPSDVVTAVRGKGLLNAIVIKETKDWDAWKVCLRLRDNGLLAKPTHGDIIRFAPPLVIKEDELRESIEIINKTILSF
modifications: PLP bound to Lys292 through a Schiff base linkage
notes: Human ornithine aminotransferase, mitochondrial; construct printed as 'pET43a Δ26-439 OAT-R217A', the mature form with Arg217 changed to alanine; also called dimeric hOAT; source: E. coli BL21, purified (DEAE HiPrep FF, Sephacryl S-100)
- binding result: binds
